Patent US20240392003A1 (NUMAB THERAPEUTICS, published 2024)
Where two headings read alike, the source gives them in different places.

B1: PRO2591 (bispecific antibody)
chain 1: AQQLTQSPSSLSASVGDRVTITCQASQNVWNNNYLSWFQQKPGKPPKLLIVTASTLASGVSSRFSGSGSGTDFTLTISSLQPEDFATYYCAGGFSGEIRAFGTGTKVTVLGGGGGSGGGGSGGGGSGGGGSQSQLVESGGGLVQPGGSLRLSCAVSGIDLSRNAMSWVRQAPGKGLEWIGIILTSGSTYYASWAKGRFTISKTSTTLDLQMNSLRAEDTAVYFCVRGIASSSLKSFWGQGTLVTVSSGGGGSGGGGSAFELTQSPSSLSASVGDRVTITCQASESINSRLAWYQQKPGQPPKLLIYDASDLTSGVPSRFSGSGSGTDFTLTISSLQPEDFATYYCQGYGGSSTTTFGCGTKLTVLGGGSGGSDIQMTQSPSSLSASVGDRVTITCQSSQSVFSNNYLAWFQQKPGQSPKRLIYSASTLASGVPSRFSGSGSGTDFTLTISSLQPEDFATYYCLGSYACSSADCYVFGTGTKVTVLG
chain 2: AQQLTQSPSSLSASVGDRVTITCQASQNVWNNNYLSWFQQKPGKPPKLLIVTASTLASGVSSRFSGSGSGTDFTLTISSLQPEDFATYYCAGGFSGEIRAFGTGTKVTVLGGGGGSGGGGSGGGGSGGGGSQSQLVESGGGLVQPGGSLRLSCAVSGIDLSRNAMSWVRQAPGKGLEWIGIILTSGSTYYASWAKGRFTISKTSTTLDLQMNSLRAEDTAVYFCVRGIASSSLKSFWGQGTLVTVSSGGGGSGGGGSEVQLVESGGGLVQPGGSLRLSCAASGFSLSSYDMSWVRQAPGKGLAWIGASYASGPTYYASWAKGRFTISRDNSKNTVYLQMNSLRAEDTATYFCARGGWTGTSHSNIWGQGTLVTVSSGGGSGGGSGGGSGEVQLVESGGGLVQPGGSLRLSCAASGFSLSSYAMNWVRQAPGKCLEWIGHINAGDIAYYATWAKGRFTISRDNSKNTVYLQMNSLRAEDTAVYFCARGAGGFSTGPFKLWGQGTLVTVSS
notes: heterodimeric MATCH4, bivalent for ROR1, monovalent for CD3 and hSA; also called MATCH4 with 55-39-G02-sc03 / 19-04-A10-sc06 / 28-21-D09-sc04 / 55-39-G02-sc03
B2: PRO2589 (bispecific antibody)
chain 1: DVQMTQSPSSLSASVGDRVTITCRASENIYSGLAWYQQKPGKPPKLLIYRASTLASGVSSRFSGSGSGTDFTLTISSLQPEDFATYYCQGGYYSSSSTYIAFGTGTKVTVLGGGGGSGGGGSGGGGSGGGGSQSQVVESGGGLVQPGGSLRLSCAVSGFDLSSYAVSWVRQAPGKGLEWIGIIYPRANTYYASWAKGRFTISKDNSKNTVYLQMNSLRAEDTAVYFCARDRYDSGAYLYTTYFNLWGQGTLVTVSSGGGGSGGGGSAFELTQSPSSLSASVGDRVTITCQASESINSRLAWYQQKPGQPPKLLIYDASDLTSGVPSRFSGSGSGTDFTLTISSLQPEDFATYYCQGYGGSSTTTFGCGTKLTVLGGGSGGSDIQMTQSPSSLSASVGDRVTITCQSSQSVFSNNYLAWFQQKPGQSPKRLIYSASTLASGVPSRFSGSGSGTDFTLTISSLQPEDFATYYCLGSYACSSADCYVFGTGTKVTVLG
chain 2: DVQMTQSPSSLSASVGDRVTITCRASENIYSGLAWYQQKPGKPPKLLIYRASTLASGVSSRFSGSGSGTDFTLTISSLQPEDFATYYCQGGYYSSSSTYIAFGTGTKVTVLGGGGGSGGGGSGGGGSGGGGSQSQVVESGGGLVQPGGSLRLSCAVSGFDLSSYAVSWVRQAPGKGLEWIGIIYPRANTYYASWAKGRFTISKDNSKNTVYLQMNSLRAEDTAVYFCARDRYDSGAYLYTTYFNLWGQGTLVTVSSGGGGSGGGGSEVQLVESGGGLVQPGGSLRLSCAASGFSLSSYDMSWVRQAPGKGLAWIGASYASGPTYYASWAKGRFTISRDNSKNTVYLQMNSLRAEDTATYFCARGGWTGTSHSNIWGQGTLVTVSSGGGSGGGSGGGSGEVQLVESGGGLVQPGGSLRLSCAASGFSLSSYAMNWVRQAPGKCLEWIGHINAGDIAYYATWAKGRFTISRDNSKNTVYLQMNSLRAEDTAVYFCARGAGGFSTGPFKLWGQGTLVTVSS
notes: heterodimeric MATCH4, bivalent for ROR1, monovalent for CD3 and hSA; also called MATCH4 with 55-38-D07-sc02 / 19-04-A10-sc06 / 28-21-D09-sc04 / 55-38-D07-sc02

What was measured:
[1] = target: T1, human ROR1 expressed on cells (human, UniProt Q01973 30-937); assay: flow cytometry, JIMT-1 cells (ROR1-positive)
T1 construct: whole, on cells; One molecule for cell-surface ROR1 on all cell lines; the cell line is named under assay; also called hROR1; plasma membrane human ROR1

[2] = target: T1, human ROR1 expressed on cells; assay: cell-based or functional assay
[3] = target: T2, recombinant human CD3 epsilon extra-cellular domain protein (His-Tag, SinoBiological) (human, UniProt P07766 23-126); assay: SPR; hCD3ε immobilized, two-state fit
T2 construct: extracellular domain; Bought; also called hCD3ε; human CD3ε; not shown: His tag

[4] = target: T1, human ROR1 expressed on cells; assay: flow cytometry, MDA-MB-231 cells, 1 mg/ml hSA
Procedure: After incubation at 4° C. for 1 h in presence of 1 mg/ml of human serum albumin (hSA), plates were washed and incubated with specific detection antibodies.
The binding of MATCH4 molecules to plasma membrane-based human ROR1 was assessed by flow cytometry. The calculated EC₅₀, rel.

[5] = target: T1, human ROR1 expressed on cells; assay: cell-based or functional assay; remark: listed apart in the source
[6] = target: T1, human ROR1 expressed on cells; assay: cell-based or functional assay; remark: listed apart in the source
[7] = target: T2, recombinant human CD3 epsilon …; assay: SPR; hCD3ε immobilized, two-state fit (kd1)
Procedure: Binding kinetics (including affinity) of the four MATCH4 molecules to recombinant human CD3 epsilon extra-cellular domain protein (hCD3ε; His-Tag, SinoBiological) were determined by SPR analysis on a T200 device (Biacore, Cytiva). Recombinant hCD3ε molecules were covalently immobilized to a carboxymethylated dextran surface (CM5 sensorchip; Biacore, Cytiva) and a titration series of each MATCH4 molecule was injected as analyte. After each analyte injection-cycle, every flow channel on the sensor chip was regenerated (Glycine, pH 2.0 and 3 M MgCl₂), and a new concentration of MATCH4 molecule was injected. […] The apparent dissociation (kd1) and association (kₐ₁) rate constants, the second reaction constants (kₐ₂ and kd2) and the apparent dissociation equilibrium constant (KD) were calculated with the Biacore analysis software (Biacore Evaluation software Version 3.2, Cytiva) using a two-state binding model, and the quality of the fits was monitored based on relative Chi2. The binding level was calculated as the maximum stability binding achieved normalized to the theoretical Rmax.

[8] = target: T2, recombinant human CD3 epsilon …; assay: SPR; hCD3ε immobilized, two-state fit (Ka1)
[9] = target: T3, recombinant human ROR1 protein (Fc-Tag, Acro Biosystems RO1-H5250) (human, UniProt Q01973 30-406); assay: SPR; hROR1-Fc immobilized (Avidity)
T3 construct: Bought; also called hROR1; recombinant human ROR1 ECD; not shown: Fc tag

[10] = target: T4, human ROR1 (Peprotech 160-054) (human, UniProt Q01973 30-406); assay: SPR; MATCH4 captured, hROR1 analyte (Affinity)
T4 construct: Bought, used as analyte; also called hROR1; recombinant human ROR1 protein

[11] = target: T1, human ROR1 expressed on cells; assay: flow cytometry, MDA-MB-231 cells, 1 mg/ml hSA; remark: listed apart in the source
[12] = target: T1, human ROR1 expressed on cells; assay: flow cytometry, JIMT-1 cells (ROR1-positive); remark: listed apart in the source

Binder | Avg. % max. CD8 T cell act. (JIMT-1) [2] | Avg. % max. CD8 T cell act. (MDA-MB-231) [2] | Avg. % max. CD8 T cell act. (SKOV3) [2] | Avg. EC50 (nM) CD8 T cell act. (JIMT-1) [2] | Avg. EC50 (nM) CD8 T cell act. (MDA-MB-231) [2] | Avg. EC50 (nM) CD8 T cell act. (SKOV3) [2] | Ka2 [3] | Kd [3] | Kd2 [3] | EC50 [4] | Rel. maximum binding (MFIMATCH4/MFIPRO2213) [4] | rel. EC50 (EC50, PRO2213/EC50, MATCH4) [4] | Avg. % max. CD4 T cell act. (JIMT-1) [5] | Avg. % max. CD4 T cell act. (MDA-MB-231) [5] | Avg. % max. CD4 T cell act. (SKOV3) [5] | Avg. EC50 (nM) CD4 T cell act. (JIMT-1) [5] | Avg. EC50 (nM) CD4 T cell act. (MDA-MB-231) [5] | Avg. EC50 (nM) CD4 T cell act. (SKOV3) [5] | Avg. % max. lysis (JIMT-1) [6] | Avg. % max. lysis (MDA-MB-231) [6] | other results
B1 | 20.3% | 67.5% | 62.7% | 4.6 nM | 0.01 nM | 0.68 nM | 0.0027 s⁻¹ | 4700 pM | 0.0024 s⁻¹ | 280 pM | 2.21 | 2.45 | 30.5% | 80.3% | 78.7% | 3.9 nM | 0.005 nM | 0.38 nM | 34.5% | 47.2% | EC50 (read off the curve) [1]: ~500 pM; Avg. % max. lysis (SKOV3) [6]: 58.7%; Avg. EC50 (nM) CD8 T cell act. (MDA-MB-231) [6]: 0.01 nM; Avg. EC50 (nM) CD8 T cell act. (SKOV3) [6]: 0.68 nM; Avg. EC50 (nM) Cytotoxicity (JIMT-1) [6]: 2.4 nM; Avg. EC50 (nM) Cytotoxicity (MDA-MB-231) [6]: 0.011 nM; Avg. EC50 (nM) Cytotoxicity (SKOV3) [6]: 3.5 nM; koff [7]: 0.00423 s⁻¹; kon [8]: 420000 M⁻¹ s⁻¹; Kd [9]: 22.7 pM; koff [9]: 4.1e-05 s⁻¹; kon [9]: 1.81e+06 M⁻¹ s⁻¹; Kd [10]: 3200 pM; koff [10]: 0.00034 s⁻¹; kon [10]: 110000 M⁻¹ s⁻¹
B2 | 23.8% | 68.5% | 66.7% | 0.08 nM | 0.012 nM | 0.032 nM | 0.0063 s⁻¹ | 5900 pM | 0.0042 s⁻¹ | 1550 pM | 2.67 | 0.45 | 36.7% | 79% | 80.3% | 0.09 nM | 0.006 nM | 0.02 nM | 41% | 56.9% | fold better rel. EC50 than scMATCH3 PRO2507 [11]: ~10 fold; Avg. % max. lysis (SKOV3) [6]: 54.6%; Avg. EC50 (nM) CD8 T cell act. (MDA-MB-231) [6]: 0.012 nM; Avg. EC50 (nM) CD8 T cell act. (SKOV3) [6]: 0.031 nM; Avg. EC50 (nM) Cytotoxicity (JIMT-1) [6]: 0.1 nM; Avg. EC50 (nM) Cytotoxicity (MDA-MB-231) [6]: 0.015 nM; Avg. EC50 (nM) Cytotoxicity (SKOV3) [6]: 0.043 nM; koff [7]: 0.0065 s⁻¹; kon [8]: 440000 M⁻¹ s⁻¹; EC50 (read off the curve) [12]: 1000 to 2000 pM; Kd [9]: 93 pM; koff [9]: 7.02e-05 s⁻¹; kon [9]: 755000 M⁻¹ s⁻¹; Kd [10]: 1200 pM; koff [10]: 0.00011 s⁻¹; kon [10]: 94000 M⁻¹ s⁻¹
